The numbers were not newly measured in publication PMC7427315, which cites them from elsewhere.

In this data set the target is MAG ECD (Mus musculus) (UniProt P20917).

What is called Kd is the equilibrium constant for the complex coming apart. On to MAG ECD (from UniProt P20917), for which the dissociation constant (Kd) is 380 µM.
